# Molecular target: MYC-tagged TNPO1 (UniProt Q92973)
# Assay: co-immunoprecipitation with luciferase readout (anti-MYC IP)
# Details: HEK293 cells expressing MYC-TNPO1 and PER1PY/Cys_mut-LUCIFERASE; control IgG IP (filled bar) est. 0.75 ± 0.19; n.s.; means ± SD of five; read off a plot
# UniProt Q92973, sequence (Q92973 whole entry): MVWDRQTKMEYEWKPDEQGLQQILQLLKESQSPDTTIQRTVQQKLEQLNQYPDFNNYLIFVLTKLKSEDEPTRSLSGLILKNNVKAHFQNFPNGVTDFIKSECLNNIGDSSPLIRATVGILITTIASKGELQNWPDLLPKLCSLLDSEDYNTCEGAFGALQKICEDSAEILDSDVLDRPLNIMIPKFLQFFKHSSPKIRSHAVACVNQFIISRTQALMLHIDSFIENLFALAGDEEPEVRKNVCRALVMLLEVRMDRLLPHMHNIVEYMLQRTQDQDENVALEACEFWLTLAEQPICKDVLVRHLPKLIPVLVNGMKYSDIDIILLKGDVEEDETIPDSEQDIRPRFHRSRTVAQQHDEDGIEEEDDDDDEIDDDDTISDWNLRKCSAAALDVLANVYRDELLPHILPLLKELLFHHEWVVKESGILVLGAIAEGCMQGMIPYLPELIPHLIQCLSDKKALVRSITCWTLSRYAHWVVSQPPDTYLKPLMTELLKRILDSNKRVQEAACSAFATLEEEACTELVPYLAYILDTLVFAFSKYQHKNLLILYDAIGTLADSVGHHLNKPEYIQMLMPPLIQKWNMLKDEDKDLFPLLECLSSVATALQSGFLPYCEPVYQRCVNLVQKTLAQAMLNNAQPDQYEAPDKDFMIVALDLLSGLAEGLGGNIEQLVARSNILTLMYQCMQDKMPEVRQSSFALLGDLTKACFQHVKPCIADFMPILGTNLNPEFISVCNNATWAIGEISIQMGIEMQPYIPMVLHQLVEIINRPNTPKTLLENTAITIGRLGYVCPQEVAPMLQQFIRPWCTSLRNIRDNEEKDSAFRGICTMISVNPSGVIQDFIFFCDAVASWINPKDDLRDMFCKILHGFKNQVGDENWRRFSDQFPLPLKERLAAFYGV
substance,measurement,value
PER1 fused to full-length firefly luciferase (HEK293) (from UniProt O15534) P883A; Y884A; P935A; Y936A; seven C-terminal Cys to Ala (positions not printed),response,0.75
